We go through 1 substance from PMC2855332.

The target of the experiment is ovine PrP (VRQ allele), PrP^Sc aggregates from brains of prion-infected tg338 mice (sheep) (UniProt P23907).

By stoichiometry N is commonly meant the number of molecules, sites or subunits per partner or assembly. In turn, “ovine PrP (VRQ allele), PrP^Sc aggregates from brains of prion-infected tg338 mice (from UniProt P23907 25-233) (natural protein)” had a stoichiometry N of 12 to 30 PrP monomers.
